Data reported in paper PMC4957051, “Molecular Mechanism of Z α1-Antitrypsin Deficiency*” (The Journal of Biological Chemistry, 2016).
Where a chain is given by its changes, count along the chain named. Names and notes keep the numbering of the source.

B1: α1-AT-S292C-T339C-E342A, reduced form (natural protein, human, UniProt P01009 25-418, looked up)
chain: EDPQGDAAQKTDTSHHDQDHPTFNKITPNLAEFAFSLYRQLAHQSNSTNIFFSPVSIATAFAMLSLGTKADTHDEILEGLNFNLTEIPEAQIHEGFQELLRTLNQPDSQLQLTTGNGLFLSEGLKLVDKFLEDVKKLYHSEAFTVNFGDTEEAKKQINDYVEKGTQGKIVDLVKELDRDTVFALVNYIFFKGKWERPFEVKDTEEEDFHVDQVTTVKVPMMKRLGMFNIQHSKKLSSWVLLMKYLGNATAIFFLPDEGKLQHLENELTHDIITKFLENEDRRSASLHLPKLCITGTYDLKSVLGQLGITKVFSNGADLSGVTEEAPLKLSKAVHKAVLCIDAKGTEAAGAMFLEAIPRSIPPEVKFNKPFVFLMIEQNTKSPLFMGKVVNPTQK
notes: α1-antitrypsin (α1-AT), human cDNA in pQE31, Pittsburgh backbone (M358R and C232S) with S292C, T339C and E342A; Same chain as m6, with the engineered disulfide reduced; also called α1-AT-SS-E342A (reduced); source: E. coli, purified; reduced form prepared
B2: α1-AT E342A (Pittsburgh backbone) (natural protein, human, UniProt P01009 25-418, looked up)
chain: B1 chain with C292S, C339T
notes: α1-antitrypsin (α1-AT), human cDNA in pQE31, Pittsburgh backbone (M358R and C232S) with E342A; also called E342A mutant; source: E. coli, purified from the soluble fraction of the lysate
B3: 6-mer peptide (FLEAIG) derived from the P7 to P2 sequence of the α1-AT reactive loop (peptide)
peptide: FLEAIG

Legend:
thrombin = experiment: rates and stoichiometries of protease inhibition; as described previously (ref. 48); each value the average of three independent measurements
activated factor X (FXa) = experiment: as above
[1] = target: the molecule itself; experiment: native gel or EMSA; thermal stability: α1-AT variants incubated at various temperatures in 10 mM Tris-HCl, pH 7.4, 0.1 M NaCl, 0.5 M urea for 30 min, then native gel
[2] = target: T1, recombinant wild type α1-antitrypsin (α1-AT Pittsburgh backbone, M358R and C232S) (human, UniProt P01009 25-418, M358R | C232S); experiment: native gel or EMSA; peptide annealing: α1-AT variants (0.5 mg/ml) incubated with 100-fold molar excess of 6-mer peptide at 37 °C for different time intervals, then 8% native gel with 7 M urea; the binary complex resists urea; details: both partners purified
T1 construct: α1-antitrypsin (α1-AT), human cDNA in pQE31, Pittsburgh backbone (M358R and C232S); probably the mature protein behind the tag; also called Wt; WT; source: E. coli, purified from the soluble fraction of the lysate

[3] = target: B2; experiment: as above; details: both partners purified
[4] = target: B1; experiment: as above; details: both partners purified
[5] = target: T2, α1-AT E342C (Pittsburgh backbone) (human, UniProt P01009 25-418, M358R | C232S | E342C); experiment: as above; details: both partners purified
T2 construct: α1-antitrypsin (α1-AT), human cDNA in pQE31, Pittsburgh backbone (M358R and C232S) with E342C; also called E342C mutant; source: E. coli, purified from the soluble fraction of the lysate

[6] = target: T3, α1-AT-S292C-T339C-E342A, oxidized form (disulfide between s5A and s6A) (human, UniProt P01009 25-418, M358R | C232S | S292C | T339C | E342A, disulfide bond linking s5A and s6A (Cys-292 and Cys-339)); experiment: as above; details: both partners purified
T3 construct: α1-antitrypsin (α1-AT), human cDNA in pQE31, Pittsburgh backbone (M358R and C232S) with S292C, T339C and E342A; Same chain as m7, with the engineered disulfide formed; also called α1-AT-SS-E342A (oxidized); source: E. coli, purified; oxidized form prepared

Row | SI (stoichiometry of inhibition) (thrombin) | SI (stoichiometry of inhibition) (activated factor X (FXa)) | Molecule | binding result [1] | further results
1 | 3.4 | 3.4 | α1-AT E342C-mod (E342C with Cys-342 chemically converted to a lysine-like residue) (from UniProt P01009 25-418) (natural protein) |  | 
2 | 1.6 |  | recombinant wild type α1-antitrypsin (α1-AT Pittsburgh backbone, M358R and C232S) (from UniProt P01009 25-418) (natural protein) |  | 
3 | 3 | 3 | α1-AT E342C (Pittsburgh backbone) (from UniProt P01009 25-418) (natural protein) |  | 
4 |  |  | B1 | binds | 
5 |  |  | B2 | binds | 
6 |  |  | B3 |  | binding result [2]: binds; binding result [3]: binds; binding result [4]: binds; binding result [5]: binds; binding result [6]: binds
